For the experiment, the target named is GST-tagged Polo-box domain (PBD) of Plk1 (UniProt P53350). Nature of the experiment: GST pull-down with anti-GFP immunoblot, band quantification. To be noted: mitotic lysates of U2OS cell lines; immobilized GST-Plk1-PBD; input levels set to 100%; parent: est. 56; read off a plot. Background: In western blotting, separated proteins are transferred to a membrane and probed.
UniProt P53350, sequence (P53350 326-603): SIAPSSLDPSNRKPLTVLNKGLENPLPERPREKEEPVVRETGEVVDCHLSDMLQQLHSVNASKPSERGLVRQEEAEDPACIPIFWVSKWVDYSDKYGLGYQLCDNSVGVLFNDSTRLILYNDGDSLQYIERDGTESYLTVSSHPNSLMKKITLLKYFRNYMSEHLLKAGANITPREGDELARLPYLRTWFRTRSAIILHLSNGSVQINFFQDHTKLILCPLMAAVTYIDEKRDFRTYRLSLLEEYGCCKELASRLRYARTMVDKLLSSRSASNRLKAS

Consider “GFP-tagged murine 53BP1, wild type (from UniProt P70399) S376A”, for which the response was 10 % of input.
With “GFP-tagged murine 53BP1, wild type (from UniProt P70399) S1620A”, the response was 78 % of input.

Source of the values: paper PMC2811157.
